Measured values taken from patent US11066455B2, “Tmem100 peptides and variants thereof and their use in treating or preventing diseases or conditions” (The Johns Hopkins University, priority 2014, dated 2021).
Numbering of substitutions follows the chain as printed.

Tested on: TRPV1
Assay: Cell-attached single-channel recording in CHO cells, CAP-induced activity (NPo)
Type: cell-based
Settings: Vh=-60 mV
Procedure: Recordings were made in cell-attached single-channel or whole-cell voltage clamp configurations at 22-24° C. from the somata of small-to-medium mouse DRG neurons (15-35 pF) or CHO cells. For whole-cell configuration, holding potential (Vh) is −60 mV. Data were acquired and analyzed using an Axopatch 200B amplifier and pCLAMP9.0 software (Molecular Devices, Sunnyvale, Calif.). Borosilicate pipettes (Sutter, Novato, Calif.) were pulled and polished to resistances of 3-5 MΩ (in whole-cell and single-channel pipette solutions). Access resistance (Rs) was compensated (40-80%) when appropriate up to the value 7-10 MΩ for whole-cell configuration. Whole-cell recording data were filtered at 0.5 kHz and sampled at 2 kHz. Single-channels currents were filtered with an 8-pole, low pass Bessel filter at 0.1 kHz and sampled at 0.5 kHz, since dwelling time (τ) of the TRPA1 and TRPV1 single-currents were >0.5 sec. Whole-cell recorded data were rejected when Rs changed >20% during recording, leak currents were >100 pA, or input resistance was <200 MΩ.
Single-channel unitary current (i) was determined from the best-fit Gaussian distribution of amplitude histograms. Single-channel activity was analyzed as NPo=I/i, where I is the mean total current in a patch and i is unitary current at this voltage. For single channel slope conductances, linear fitting was used separately for positive and negative holding potentials. The slope conductances presented in figures were determined from fitting negative hold potentials (from −60 to 0 mV). The single-channel recording data were analyzed with Clampfit 9 software. This has an “event detection analysis” function that analyzes current traces and determines the number of channels in the patch (N), how many sub-conductances are present, and what the main conductance is. In order to increase the accuracy of the Po measurement, only patches containing fewer than 3 channels were used. For patches containing both TRPA1 and TRPV1, only those with equal numbers of TRPA1 and TRPV1 were used. This was monitored in each recording by applying MO and then CAP.
Standard external solution (SES) for whole-cell patch recording contained (in mM): 140 NaCl, 5 KCl, 2 CaCl2, 1 MgCl2, 10 D-glucose and 10 HEPES, pH 7.4. Vehicle, which is 0.01% DMSO, was added to external solutions. The bath solution for single-channel recording (SES-SCh) of TRP currents consisted of (in mM): 100 K-gluconate, 4 KCl, 1 MgCl2, 1 EGTA, 10 D-glucose and 10 Hepes (pH 7.3). The standard pipette solution (SIS) for the whole-cell configurations contained (in mM): 140 KCl, 1 MgCl2, 1 CaCl2, 10 EGTA, 10 D-glucose, 10 HEPES, pH 7.3. […] The baseline activities of the cells were recorded for 1-2 min prior drug applications. […]

[1] = co-expressed with TRPA1+TRPV1 (1:1:4) in CHO cells
[2] = co-expressed with TRPV1 only (1:4) in CHO cells

B1: Tmem100-3Q mutant (full-length, mouse) (protein)
chain: MTEESTKENLGAPKSPTPVTMEKNPKREVVVTTGPLVSEVQLMAATGGAELSCYRCIIPFAVVVFITGIVVTAVAYSFNSHGSIISIFGLVLLSSGLFLLASSALCWKVRQRNKKVQQQESQTALVVNQRCLFA
Q: What does the source list for B1?
A: CAP (100 nM)-induced single-channel activity (NPo) [1]: 1.08±0.17; CAP (100 nM)-induced single-channel activity (NPo) [2]: 0.73±0.12

B2: Tmem100: 134-amino acid two-transmembrane protein, regulator of TRPA1 (SEQ ID NO: 1/2), expressed in cells (protein, listed as Homo sapiens, listed as Mus musculus)
chain 1: MTEEPIKEILGAPKAHMAATMEKSPKSEVVITTVPLVSEIQLMAATGGTELSCYRCIIPFAVVVFIAGIVVTAVAYSFNSHGSIISIFGLVVLSSGLFLLASSALCWKVRQRSKKAKRRESQTALVANQRSLFA
chain 2: B1 chain with Q117K, Q118R, Q119R
Q: B2 was tested. Which “CAP (100 nM)-induced single-channel activity (NPo)” value [1] did it give?
A: 0.82±0.14

Q: And the “CAP (100 nM)-induced single-channel activity (NPo)” value [2]?
A: 0.45±0.1
